Measured values as given in EP4335864A1.

Biological target: recombinant murine IFN-α subtype A (murine)
Assay: cell-based or functional assay

recombinant murine IFN-α subtype A (murine), sequence (P01573 24-190): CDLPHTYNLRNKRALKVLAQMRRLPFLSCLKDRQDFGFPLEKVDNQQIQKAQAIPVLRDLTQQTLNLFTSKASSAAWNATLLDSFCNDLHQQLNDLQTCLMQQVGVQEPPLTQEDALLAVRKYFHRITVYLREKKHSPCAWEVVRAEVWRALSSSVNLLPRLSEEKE

Substance: D3 immunoglobulin-like domain of vaccinia virus B18 protein, 6xHis tagged, expressed in bacteria (from UniProt P21077 254-353) (receptor)
- amount of protein for full IFN neutralization, against B18: 1
